# B1: Ephrin-B2 (Mus musculus), P52800 (parent)
# chain: MAMARSRRDSVWKYCWGLLMVLCRTAISRSIVLEPIYWNSSNSKFLPGQGLVLYPQIGDKLDIICPKVDSKTVGQYEYYKVYMVDKDQADRCTIKKENTPLLNCARPDQDVKFTIKFQEFSPNLWGLEFQKNKDYYIISTSNGSLEGLDNQEGGVCQTRAMKILMKVGQDASSAGSARNHGPTRRPELEAGTNGRSSTTSPFVKPNPGSSTDGNSAGHSGNNLLGSEVALFAGIASGCIIFIVIIITLVVLLLKYRRRHRKHSPQHTTTLSLSTLATPKRGGNNNGSEPSDVIIPLRTADSVFCPHYEKVSGDYGHPVYIVQEMPPQSPANIYYKV
# partner: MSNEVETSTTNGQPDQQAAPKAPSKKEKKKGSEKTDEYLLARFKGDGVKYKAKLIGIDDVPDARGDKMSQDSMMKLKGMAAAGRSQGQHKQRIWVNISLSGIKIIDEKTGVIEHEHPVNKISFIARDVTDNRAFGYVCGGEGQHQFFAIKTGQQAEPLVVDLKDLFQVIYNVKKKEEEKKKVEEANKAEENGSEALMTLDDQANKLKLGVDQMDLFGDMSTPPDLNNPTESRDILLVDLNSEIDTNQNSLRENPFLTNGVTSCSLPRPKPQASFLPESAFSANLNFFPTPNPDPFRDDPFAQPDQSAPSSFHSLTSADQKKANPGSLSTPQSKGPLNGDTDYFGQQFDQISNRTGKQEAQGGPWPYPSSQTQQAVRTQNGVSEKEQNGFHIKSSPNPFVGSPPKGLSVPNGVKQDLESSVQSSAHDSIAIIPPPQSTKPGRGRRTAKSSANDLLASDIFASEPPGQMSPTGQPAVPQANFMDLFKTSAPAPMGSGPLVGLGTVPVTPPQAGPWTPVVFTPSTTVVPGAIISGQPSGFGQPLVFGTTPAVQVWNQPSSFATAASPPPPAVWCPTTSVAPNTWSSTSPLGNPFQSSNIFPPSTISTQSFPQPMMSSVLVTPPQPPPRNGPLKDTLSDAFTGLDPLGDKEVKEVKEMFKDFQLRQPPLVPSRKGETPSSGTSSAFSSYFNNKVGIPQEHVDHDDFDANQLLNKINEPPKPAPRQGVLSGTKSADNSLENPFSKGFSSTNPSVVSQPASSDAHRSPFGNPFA
# Variants of: B1
# Details: with dab2_rat Dab2, O88797
row,Variant,effect of a mutation on the interaction
1,MAMARSRRDSVWKYCWGLLMVLCRTAISRSIVLEPIYWNSSNSKFLPGQGLVLYPQIGDKLDIICPKVDSKTVGQYEYYKVYMVDKDQADRCTIKKENTPLLNCARPDQDVKFTIKFQEFSPNLWGLEFQKNKDYYIISTSNGSLEGLDNQEGGVCQTRAMKILMKVGQDASSAGSARNHGPTRRPELEAGTNGRSSTTSPFVKPNPGSSTDGNSAGHSGNNLLGSEVALFAGIASGCIIFIVIIITLVVLLLKYRRRHRKHSPQHTTTLSLSTLATPKRGGNNNGSEPSDVIIPLRTADSVFCPHYEKVSGDYGHPVYIVQEMPPQSPANIYYKS [V336S],disrupting interaction strength

# Source: IntAct's records for PubMed 23354168
